How the values were obtained:
[1] = rat; for Relative increase of PS vs ALB, blood nerve barrier / Relative increase of Vp vs ALB, blood nerve barrier / Residual endoneurial plasma volume (Vp) of the blood nerve barrier / PS values across the blood nerve and blood brain barrier: in vivo; for Permeability coefficient-surface area product (PS) of the blood nerve barrier: not told, iv
Protocol: (§1) Male Sprague-Dawley rats (24-weeks-old) (460-500 g) were obtained from Bio Lab (St. Paul) and were used to determine the PS and Vp measurements. All animals were kept for a minimum of 3 days under standard housing conditions and feeding schedules prior to the experiments.
Briefly, a bolus of PBS containing ^125 I labelled carrier molecule was injected rapidly into the catheterized brachial vein of pentobarbital anesthetized rats. Blood was sampled during the next 30, 60, or 240 minutes from the brachial artery, depending on the carrier molecule being evaluated. Prior to the sacrifice of the animal at time sequences of 60 or 120 seconds, the second isotope-labelled carrier molecule (^131 I) was administered intravenously to serve as the residual plasma volume indicator (Vp).
After the final blood sample was collected, the sciatic nerves were rapidly removed and desheathed. Similarly, the brain was removed followed by the meninges. The brain was dissected into the cortex, caudal putamen, hippocampus, thalamus, brain stem, and cerebellum. The tissue was then lyophilized, and the dry weight was determined with a microbalance. These weights were then converted to their respective wet weights with wet weight/dry weight ratios previously determined for desheathed rat sciatic nerve and for the different brain regions. Tissue and plasma samples were assayed for ^125 I and ^131 I radioactivity in a 2-channel gamma counter. Radioactivity was corrected for crossover of ^131 I activity into the ^125 I channel and background activity. The Vp and PS measurements were calculated as described previously in Poduslo et al., Proc. Natl. Acad. Sci. U.S.A., 89, 2218 (1992). […] Statistical evaluations were done using Student's two-tailed paired t-test. Significance was accepted at the p<0.05 level.

[2] = rat, in vivo
Protocol: as §1
Briefly, a bolus of PBS containing ^125 I labelled carrier molecule was injected rapidly into the catheterized brachial vein of pentobarbital anesthetized rats. Blood was sampled during the next 30, 60, or 240 minutes from the brachial artery, depending on the carrier molecule being evaluated. […]
After the final blood sample was collected, the sciatic nerves were rapidly removed and desheathed. […] The tissue was then lyophilized, and the dry weight was determined with a microbalance. These weights were then converted to their respective wet weights with wet weight/dry weight ratios previously determined for desheathed rat sciatic nerve and for the different brain regions. Tissue and plasma samples were assayed for ^125 I and ^131 I radioactivity in a 2-channel gamma counter. Radioactivity was corrected for crossover of ^131 I activity into the ^125 I channel and background activity. The Vp and PS measurements were calculated as described previously in Poduslo et al., Proc. Natl. Acad. Sci. U.S.A., 89, 2218 (1992). […]

Substance | Relative increase of PS vs ALB, blood nerve barrier [1] | Relative increase of Vp vs ALB, blood nerve barrier [1] | Residual endoneurial plasma volume (Vp) of the blood nerve barrier [1] | Permeability coefficient-surface area product (PS) of the blood nerve barrier [1] | PS values across the blood nerve and blood brain barrier [1] | PS values in the different brain regions [2] | Vp values in the different brain regions [2]
calmodulin | 211.3 | 0.9 | 1.66 ± 0.32 µL/g | 21.34 ± 3.40 ml/g/sec × 10^6 |  |  | 
ceruloplasmin | 82.4 | 1.0 | 1.98 ± 0.38 µL/g |  | 1-10 ×10^-6 ml/g/sec |  | 
cytochrome c | 73.6 | 1.0 | 1.96 ± 0.32 µL/g | 7.43 ± 3.68 ml/g/sec × 10^6 | 1-10 ×10^-6 ml/g/sec |  | 
hemoglobin | 65.3 | 1.0 | 1.91 ± 0.35 µL/g | 6.60 ± 1.33 ml/g/sec × 10^6 | 1-10 ×10^-6 ml/g/sec |  | 
lysozyme | 66.4 | 1.3 | 2.57 ± 0.52 µL/g | 6.71 ± 1.65 ml/g/sec × 10^6 | 1-10 ×10^-6 ml/g/sec |  | 
substance P [SP] |  |  | 14.87 ± 3.53 µL/g |  |  | 27.68-36.53 ×10^-6 ml/g/s | 11.03 to 21.29 µL/g
ubiquitin | 228.9 | 0.9 | 1.84 ± 0.51 µL/g |  |  |  | 

Source: US5604198A, “Method to enhance permeability of the blood/brain blood/nerve barriers to therapeutic agents” (priority 1994, dated 1997)
